Reference: paper PMC10786891, “Massively parallel profiling of RNA-targeting CRISPR-Cas13d”
Positions count from the first letter of the chain named. Numbers in names are those of the source.

T1: EsCas13d, nuclease-dead (Eubacterium siraeum, UniProt B0MS50, R295A;H300A;R849A;H854A)
T1 sequence: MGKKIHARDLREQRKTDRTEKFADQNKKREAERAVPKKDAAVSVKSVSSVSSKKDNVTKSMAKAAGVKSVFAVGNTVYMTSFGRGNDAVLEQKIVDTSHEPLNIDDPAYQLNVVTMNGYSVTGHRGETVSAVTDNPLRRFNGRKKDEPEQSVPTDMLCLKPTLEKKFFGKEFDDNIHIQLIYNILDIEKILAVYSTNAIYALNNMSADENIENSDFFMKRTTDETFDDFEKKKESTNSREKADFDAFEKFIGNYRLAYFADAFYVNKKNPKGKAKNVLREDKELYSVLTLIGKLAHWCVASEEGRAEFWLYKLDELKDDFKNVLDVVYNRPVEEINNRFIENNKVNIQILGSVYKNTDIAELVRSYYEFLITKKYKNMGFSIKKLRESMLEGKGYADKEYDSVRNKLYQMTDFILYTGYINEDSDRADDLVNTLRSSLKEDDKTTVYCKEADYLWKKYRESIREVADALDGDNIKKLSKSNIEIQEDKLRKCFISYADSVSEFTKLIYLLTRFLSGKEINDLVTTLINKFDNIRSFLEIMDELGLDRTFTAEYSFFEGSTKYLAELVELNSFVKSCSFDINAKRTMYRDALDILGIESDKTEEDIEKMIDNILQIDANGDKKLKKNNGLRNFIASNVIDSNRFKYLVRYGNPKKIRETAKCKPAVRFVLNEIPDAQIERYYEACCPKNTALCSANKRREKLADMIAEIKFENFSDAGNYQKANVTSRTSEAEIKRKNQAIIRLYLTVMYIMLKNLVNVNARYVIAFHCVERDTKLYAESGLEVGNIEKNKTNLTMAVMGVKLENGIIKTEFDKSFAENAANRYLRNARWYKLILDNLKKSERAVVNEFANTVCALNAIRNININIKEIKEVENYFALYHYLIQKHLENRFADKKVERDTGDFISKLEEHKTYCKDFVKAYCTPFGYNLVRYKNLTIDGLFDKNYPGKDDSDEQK

B1: target 2 MT 5'PFS UUC 3'PFS UUC (mixed)
RNA 1: CACCCGUGCAAAAUUGCAGGGGUCUAAAACCUUCUCCAAAUUGUUUCAUCCU
RNA 2: GGGAAUGGAUCCACAUCUACGAAUUCUUCAGGAUGAAACAAUUUGGAGAAGUUCAGAUCGGAAGAGCACACGU
B2: target 2 MT 5'PFS GCU 3'PFS UCC (mixed)
RNA 1: B1 RNA 1
RNA 2: B1 RNA 2 with U27G, U28C, C29U, U53C
B3: target 2 MT 5'PFS UUA 3'PFS UAC (mixed)
RNA 1: B1 RNA 1
RNA 2: B1 RNA 2 with C29A, U53A
B4: target 2 MT 5'PFS GUC 3'PFS UUC (mixed)
RNA 1: B1 RNA 1
RNA 2: B1 RNA 2 with U27G
B5: target 2 MT 5'PFS AAU 3'PFS AUC (mixed)
RNA 1: B1 RNA 1
RNA 2: B1 RNA 2 with U27A, U28A, C29U, U52A
B6: target 2 MT 5'PFS AGA 3'PFS UUA (mixed)
RNA 1: B1 RNA 1
RNA 2: B1 RNA 2 with U27A, U28G, C29A, C54A
B7: target 2 MT 5'PFS AGA 3'PFS UUC (mixed)
RNA 1: B1 RNA 1
RNA 2: B1 RNA 2 with U27A, U28G, C29A
B8: target 2 MT 5'PFS CCA 3'PFS CCU (mixed)
RNA 1: B1 RNA 1
RNA 2: B1 RNA 2 with U27C, U28C, C29A, U52C, U53C, C54U
B9: target 2 MT 5'PFS UUA 3'PFS UAU (mixed)
RNA 1: B1 RNA 1
RNA 2: B1 RNA 2 with C29A, U53A, C54U
B10: target 2 MT 5'PFS AGU 3'PFS CUG (mixed)
RNA 1: B1 RNA 1
RNA 2: B1 RNA 2 with U27A, U28G, C29U, U52C, C54G
B11: target 2 MT 5'PFS AAU 3'PFS AUU (mixed)
RNA 1: B1 RNA 1
RNA 2: B1 RNA 2 with U27A, U28A, C29U, U52A, C54U
B12: target 2 MT 5'PFS UUA 3'PFS CUA (mixed)
RNA 1: B1 RNA 1
RNA 2: B1 RNA 2 with C29A, U52C, C54A
B13: target 2 MT 5'PFS AGU 3'PFS CUU (mixed)
RNA 1: B1 RNA 1
RNA 2: B1 RNA 2 with U27A, U28G, C29U, U52C, C54U
B14: target 2 MT 5'PFS GGC 3'PFS UGU (mixed)
RNA 1: B1 RNA 1
RNA 2: B1 RNA 2 with U27G, U28G, U53G, C54U
B15: target 2 MT 5'PFS GCU 3'PFS UCU (mixed)
RNA 1: B1 RNA 1
RNA 2: B1 RNA 2 with U27G, U28C, C29U, U53C, C54U
B16: target 2 MT 5'PFS AGU 3'PFS CUC (mixed)
RNA 1: B1 RNA 1
RNA 2: B1 RNA 2 with U27A, U28G, C29U, U52C
B17: target 2 MT 5'PFS AAG 3'PFS AAC (mixed)
RNA 1: B1 RNA 1
RNA 2: B1 RNA 2 with U27A, U28A, C29G, U52A, U53A
B18: target 2 MT 5'PFS GCU 3'PFS UCG (mixed)
RNA 1: B1 RNA 1
RNA 2: B1 RNA 2 with U27G, U28C, C29U, U53C, C54G
B19: target 2 MT 5'PFS UCU 3'PFS CCG (mixed)
RNA 1: B1 RNA 1
RNA 2: B1 RNA 2 with U28C, C29U, U52C, U53C, C54G
B20: target 2 MT 5'PFS UUA 3'PFS CUU (mixed)
RNA 1: B1 RNA 1
RNA 2: B1 RNA 2 with C29A, U52C, C54U
B21: target 2 MT 5'PFS AGA 3'PFS UUU (mixed)
RNA 1: B1 RNA 1
RNA 2: B1 RNA 2 with U27A, U28G, C29A, C54U
B22: target 2 MT 5'PFS AUU 3'PFS UUC (mixed)
RNA 1: B1 RNA 1
RNA 2: B1 RNA 2 with U27A, C29U
B23: target 2 MT 5'PFS CGC 3'PFS CUU (mixed)
RNA 1: B1 RNA 1
RNA 2: B1 RNA 2 with U27C, U28G, U52C, C54U
B24: target 2 MT 5'PFS GAA 3'PFS UGU (mixed)
RNA 1: B1 RNA 1
RNA 2: B1 RNA 2 with U27G, U28A, C29A, U53G, C54U
B25: target 2 MT 5'PFS UUA 3'PFS CUG (mixed)
RNA 1: B1 RNA 1
RNA 2: B1 RNA 2 with C29A, U52C, C54G
B26: target 2 MT 5'PFS GUC 3'PFS UUA (mixed)
RNA 1: B1 RNA 1
RNA 2: B1 RNA 2 with U27G, C54A
B27: target 2 MT 5'PFS AGA 3'PFS UUG (mixed)
RNA 1: B1 RNA 1
RNA 2: B1 RNA 2 with U27A, U28G, C29A, C54G
B28: target 2 MT 5'PFS GUG 3'PFS UGC (mixed)
RNA 1: B1 RNA 1
RNA 2: B1 RNA 2 with U27G, C29G, U53G
B29: target 2 MT 5'PFS AUC 3'PFS CGA (mixed)
RNA 1: B1 RNA 1
RNA 2: B1 RNA 2 with U27A, U52C, U53G, C54A
B30: target 2 MT 5'PFS AGG 3'PFS ACC (mixed)
RNA 1: B1 RNA 1
RNA 2: B1 RNA 2 with U27A, U28G, C29G, U52A, U53C
B31: target 2 MT 5'PFS AUU 3'PFS UUA (mixed)
RNA 1: B1 RNA 1
RNA 2: B1 RNA 2 with U27A, C29U, C54A
B32: target 2 MT 5'PFS GAA 3'PFS UGC (mixed)
RNA 1: B1 RNA 1
RNA 2: B1 RNA 2 with U27G, U28A, C29A, U53G
B33: target 2 MT 5'PFS AAU 3'PFS AUA (mixed)
RNA 1: B1 RNA 1
RNA 2: B1 RNA 2 with U27A, U28A, C29U, U52A, C54A
B34: target 2 MT 5'PFS UUA 3'PFS UAG (mixed)
RNA 1: B1 RNA 1
RNA 2: B1 RNA 2 with C29A, U53A, C54G
B35: target 2 MT 5'PFS UUA 3'PFS CUC (mixed)
RNA 1: B1 RNA 1
RNA 2: B1 RNA 2 with C29A, U52C
B36: target 1 A1U,A16U (mixed)
RNA 1: CACCCGUGCAAAAAUGCAGGGGUCUAAAACUGAGCGGAUAACCUCUCUAUGG
RNA 2: GGGAAUGGAUCCACAUCUACGAAUUCGUACCAUAGUGAGGUUAUCCGCUCUCCGAGAUCGGAAGAGCACACGU
B37: target 1 U10A,G12C (mixed)
RNA 1: B36 RNA 1
RNA 2: B36 RNA 2 with U36A, G40C, U42A, U51A
B38: target 1 insG 3' of 2,insG 3' of 2 (mixed)
RNA 1: B36 RNA 1
RNA 2: GGGAAUGGAUCCACAUCUACGAAUUCGUACCAUAGAGAGGUUAUCCGCUCGGACCGAGAUCGGAAGAGCACACGU

Target: T1, EsCas13d, nuclease-dead
Assay: crRNA (strand 1, pre-loaded); Mg2+; 40 mM Tris-HCl pH 7.5, 150 mM NaCl, 6 mM MgCl2, 1 mM DTT, 0.1% Tween-20, 0.2 mg/ml BSA; 25 C; 10 min per concentration, then washed
Conditions: tags: His6-TwinStrep-SUMO cleaved; N-terminal SNAP kept (SNAP-Surface 488); label: 3' end held by stalled T7 RNA polymerase

Point of comparison: B24, Kd 18 ± 2.7 nM. Against it:
- B1 — 1.7-fold higher, 31 ± 8 nM
- B2 — 2.2-fold higher, 40 ± 8 nM
- B3 — 2.1-fold higher, 37 ± 7 nM
- B4 — 2.6-fold higher, ~47 nM
- B5 — 2.9-fold lower, 6.3 ± 0.7 nM
- B6 — 1.5-fold lower, 11.7 ± 2.2 nM
- B7 — the same, 18 ± 5 nM
- B8 — 3.7-fold lower, 4.9 ± 0.6 nM
- B9 — within error, 15.9 ± 2.4 nM
- B10 — 1.6-fold lower, 11.4 ± 1.5 nM
- B11 — 3.4-fold lower, 5.3 ± 0.6 nM
- B12 — within error, 20.9 ± 3.3 nM
- B13 — within error, 24 ± 8 nM
- B14 — 1.5-fold higher, 27.8 ± 3.5 nM
- B15 — 1.9-fold higher, 34 ± 11 nM
- B16 — 2.8-fold higher, ~50 nM
- B17 — 5.8-fold lower, 3.1 ± 1 nM
- B18 — the same, 18 ± 4 nM
- B19 — within error, 17.4 ± 3 nM
- B20 — 2-fold higher, 36 ± 6 nM
- B21 — within error, 13.2 ± 2.6 nM
- B22 — within error, 23 ± 5 nM
- B23 — within error, 14 ± 4 nM
- B25 — within 1.5-fold, 24 ± 2.7 nM
- B26 — 1.7-fold higher, 31 ± 6 nM
- B27 — 3-fold lower, 6.1 ± 1 nM
- B28 — within error, 17.1 ± 2.5 nM
- B29 — 3.4-fold higher, 61 ± 20 nM
- B30 — within error, 15 ± 6 nM
- B31 — within error, 13.5 ± 2.1 nM
- B32 — within error, 13.2 ± 2.6 nM
- B33 — 4-fold lower, 4.5 ± 0.9 nM
- B34 — within error, 22 ± 5 nM
- B35 — 3.1-fold higher, 55 ± 16 nM
- B36 — 3.9-fold higher, 70 ± 13 nM
- B37 — 2.1-fold lower, 8.6 ± 1 nM
- B38 — 2.4-fold lower, 7.5 ± 0.5 nM
